The text below walks through data of CN101218351A (UNIV DUKE, dated 2008).

This test deals with T1, human CD19 (human, UniProt P15391 20-556).
T1 construct: whole, on cells; also called hCD19
T1 sequence (looked up): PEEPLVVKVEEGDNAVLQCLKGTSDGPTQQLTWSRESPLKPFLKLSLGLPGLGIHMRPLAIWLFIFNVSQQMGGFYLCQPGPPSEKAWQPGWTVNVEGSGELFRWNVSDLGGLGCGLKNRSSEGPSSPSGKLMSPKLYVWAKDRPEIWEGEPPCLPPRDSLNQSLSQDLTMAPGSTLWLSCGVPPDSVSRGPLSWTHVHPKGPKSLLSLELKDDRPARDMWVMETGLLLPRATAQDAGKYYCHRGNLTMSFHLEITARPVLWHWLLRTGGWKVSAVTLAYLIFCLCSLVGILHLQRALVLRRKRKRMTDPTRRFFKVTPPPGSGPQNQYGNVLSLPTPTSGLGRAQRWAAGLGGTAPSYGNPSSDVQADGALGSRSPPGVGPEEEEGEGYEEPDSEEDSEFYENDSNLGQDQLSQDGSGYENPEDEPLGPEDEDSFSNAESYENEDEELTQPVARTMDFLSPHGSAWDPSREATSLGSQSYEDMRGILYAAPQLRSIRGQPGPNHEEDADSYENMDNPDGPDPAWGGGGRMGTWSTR
The test is described as follows: flow cytometry on hCD19 cDNA-transfected 300.19 cells, antibody at 5 ug/mL, anti-mouse Ig PE secondary. For orientation: A flow cytometer gives signals particle by particle.

B1: FMC63 anti-CD19 antibody (antibody, IgG2a, V domains shown)
VH: EVKLQESGPGLVAPSQSLSVTCTVSGVSLPDYGVSWIRQPPRKGLEWLGVIWGSEDTTYYNSALKSRLTIIKDNSKSQVFLKMNSLQTDDTAIYYCAKHYYYGGSYAMDYWGQGTSVTVSS
VL: DIQMTQTTSSLSASLGDRVTISCRASQDISKYLNWYQQKPDGTVKLLIYHTSRLHSGVPSRFSGSGSGTDYSLTISNLEQEDIATYFCQQGNTLPYTFGGGTKLEIT
notes: Mouse monoclonal IgG2a, bought from Chemicon International
With B1, the binding result is given as “binds”.
